The text below walks through data of patent publication US20190015483A1 (CSL BEHRING RECOMBINANT FACILITY, published 2019).

Numbering of substitutions follows the chain as printed. In names and notes the source's numbering stands.

This assay deals with T1, recombinant Factor VIII (CSL627, rVIII-SingleChain) (Homo sapiens (Human), UniProt P00451 20-2351).
T1 construct: also called FVIII
T1 sequence: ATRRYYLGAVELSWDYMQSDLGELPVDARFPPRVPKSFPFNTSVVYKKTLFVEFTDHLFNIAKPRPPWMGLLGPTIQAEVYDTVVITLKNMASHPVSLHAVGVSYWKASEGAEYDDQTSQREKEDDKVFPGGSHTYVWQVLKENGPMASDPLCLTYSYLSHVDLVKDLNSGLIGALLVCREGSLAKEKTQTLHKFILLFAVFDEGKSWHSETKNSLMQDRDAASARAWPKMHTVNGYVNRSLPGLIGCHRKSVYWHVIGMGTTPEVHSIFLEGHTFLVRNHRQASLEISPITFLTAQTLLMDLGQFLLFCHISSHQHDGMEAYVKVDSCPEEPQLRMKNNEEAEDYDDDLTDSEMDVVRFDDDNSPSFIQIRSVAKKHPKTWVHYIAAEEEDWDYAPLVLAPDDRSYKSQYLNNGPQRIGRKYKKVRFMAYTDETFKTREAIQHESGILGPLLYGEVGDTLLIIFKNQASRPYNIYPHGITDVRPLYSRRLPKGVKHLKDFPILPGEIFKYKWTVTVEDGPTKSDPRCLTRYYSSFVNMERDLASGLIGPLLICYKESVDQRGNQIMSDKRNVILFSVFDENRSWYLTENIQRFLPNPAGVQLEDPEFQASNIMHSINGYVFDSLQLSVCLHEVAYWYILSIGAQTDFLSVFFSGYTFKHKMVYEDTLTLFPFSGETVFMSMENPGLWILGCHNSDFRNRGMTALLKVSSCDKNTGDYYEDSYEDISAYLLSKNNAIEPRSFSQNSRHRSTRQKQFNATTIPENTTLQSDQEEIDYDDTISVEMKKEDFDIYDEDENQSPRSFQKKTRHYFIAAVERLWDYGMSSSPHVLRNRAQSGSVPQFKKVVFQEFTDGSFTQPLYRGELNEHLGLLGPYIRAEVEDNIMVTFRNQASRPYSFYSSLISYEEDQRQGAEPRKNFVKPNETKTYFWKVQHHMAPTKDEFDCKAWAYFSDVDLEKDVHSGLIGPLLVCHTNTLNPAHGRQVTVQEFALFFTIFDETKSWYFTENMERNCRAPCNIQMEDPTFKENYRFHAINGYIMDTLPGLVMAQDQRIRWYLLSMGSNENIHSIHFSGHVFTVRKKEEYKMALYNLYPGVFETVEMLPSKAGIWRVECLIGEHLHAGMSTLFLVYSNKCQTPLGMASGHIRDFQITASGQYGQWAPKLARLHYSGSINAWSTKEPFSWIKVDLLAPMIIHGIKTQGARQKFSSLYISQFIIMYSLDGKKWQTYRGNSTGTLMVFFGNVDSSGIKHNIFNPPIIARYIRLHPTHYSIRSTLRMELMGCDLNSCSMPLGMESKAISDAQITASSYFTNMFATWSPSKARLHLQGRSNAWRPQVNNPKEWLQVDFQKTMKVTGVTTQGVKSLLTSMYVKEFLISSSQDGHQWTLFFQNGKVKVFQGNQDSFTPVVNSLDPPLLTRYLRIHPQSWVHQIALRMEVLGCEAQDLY
The experiment in a line: SPR, anti-His capture. The method, then: Binding kinetics were investigated by surface plasmon resonance using a Biacore 4000 biosensor at 37° C. Each mutant was captured from cell culture medium to a density of 40-150 RU on a CM-5 sensor chip pre-immobilised with anti-His antibody (14,000 RU). In an initial screening study, FVIII was injected over the captured mutants for 5 minutes at 1 nM and dissociation monitored for 5 minutes.
All sensorgrams were double referenced by subtraction of signals from a reference spot (containing only immobilised anti His antibody) and from a blank injection. Binding kinetics were determined by fitting the double referenced sensorgrams to a 1:1 kinetic model.
On the technique in general: In SPR one partner is held on a chip, and binding of the other changes the refractive index at the surface.

B1: Hu-vWF[764-1270]-8His S764P-K773I (other)
chain: PLSCRPPMVILVCPADNLRAEGLECTKTCQNYDLECMSMGCVSGCLCPPGMVRHENRCVALERCPCFHQGKEYAPGETVKIGCNTCVCRDRKWNCTDHVCDATCSTIGMAHYLTFDGLKYLFPGECQYVLVQDYCGSNPGTFRILVGNKGCSHPSVKCKKRVTILVEGGEIELFDGEVNVKRPMKDETHFEVVESGRYIILLLGKALSVVWDRHLSISVVLKQTYQEKVCGLCGNFDGIQNNDLTSSNLQVEEDPVDFGNSWKVSSQCADTRKVPLDSSPATCHNNIMKQTMVDSSCRILTSDVFQDCNKLVDPEPYLDVCIYDTCSCESIGDCACFCDTIAAYAHVCAQHGKVVTWRTATLCPQSCEERNLRENGYECEWRYNSCAPACQVTCQHPEPLACPVQCVEGCHAHCPPGKILDELLQTCVDPEDCPVCEVAGRRFASGKKVTLNPSDPEHCQICHCDVVNLTCEACQEPGGLVVPPTDAPVSPTTLYVEDISEPPLHDFHHHHHHHH
For B1, the Kd turned out to be 0.00943 nM, the off-rate constant (koff) was 0.000169 s⁻¹ and the kon worked out at 1.79e+07 M⁻¹ s⁻¹.

B2: Hu-vWF[764-1270]-8His S764P-L765M (other)
chain: B1 chain with L2M, I10K
For the molecule B2, the Kd was determined as 0.0243 nM, the koff was 0.000237 s⁻¹ and the kon is 9.76e+06 M⁻¹ s⁻¹.

B3: Hu-vWF[764-1270]-8His S764P-L765W (other)
chain: B1 chain with L2W, I10K
For the molecule B3, the Kd came out at 0.645 nM, the off-rate (koff) worked out at 0.00514 s⁻¹ and the kon is 7.97e+06 M⁻¹ s⁻¹.

B4: Hu-vWF[764-1270]-8His S764P-K773Q (other)
chain: B1 chain with I10Q
For the molecule B4, the equilibrium dissociation constant (Kd) was 0.0288 nM, the koff came to 0.000128 s⁻¹ and the on-rate (kon) came out at 4.44e+06 M⁻¹ s⁻¹.

B5: Hu-vWF[764-1270]-8His S764P-S766D (other)
chain: B1 chain with S3D, I10K
Regarding B5, the Kd is 0.0127 nM, the off-rate (koff) was 0.00012 s⁻¹ and the on-rate (kon) turned out to be 9.41e+06 M⁻¹ s⁻¹.

B6: Hu-vWF[764-1270]-8His S764P-K773P (other)
chain: B1 chain with I10P
B6: the dissociation constant Kd was determined as 0.0222 nM, the koff is 0.000501 s⁻¹ and the kon stood at 2.26e+07 M⁻¹ s⁻¹.

B7: Hu-vWF[764-1270]-8His S764P-L765I (other)
chain: B1 chain with L2I, I10K
As for B7, the Kd turned out to be 0.0118 nM, the off-rate constant (koff) worked out at 9.52e-05 s⁻¹ and the kon was determined as 8.08e+06 M⁻¹ s⁻¹.

B8: Hu-vWF[764-1270]-8His S764P-S766E (other)
chain: B1 chain with S3E, I10K
Regarding B8, the Kd came out at 0.016 nM, the koff came to 0.000128 s⁻¹ and the on-rate (kon) was 8.04e+06 M⁻¹ s⁻¹.

B9: Hu-vWF[764-1270]-8His S764P-L765H (other)
chain: B1 chain with L2H, I10K
Take B9: the Kd amounted to 0.555 nM, the off-rate (koff) came out at 0.00642 s⁻¹ and the on-rate (kon) was 1.16e+07 M⁻¹ s⁻¹.

B10: Hu-vWF[764-1270]-8His S764P-L765V (other)
chain: B1 chain with L2V, I10K
On to B10, for which the Kd worked out at 0.355 nM, the koff came out at 0.0022 s⁻¹ and the kon is 6.19e+06 M⁻¹ s⁻¹.

B11: Hu-vWF[764-1270]-8His S764P-L765A (other)
chain: B1 chain with L2A, I10K
Take B11: the equilibrium dissociation constant (Kd) stood at 0.906 nM, the off-rate constant (koff) was found to be 0.0278 s⁻¹ and the on-rate (kon) was 3.07e+07 M⁻¹ s⁻¹.

B12: Hu-vWF[764-1270]-8His S764P-L765Q (other)
chain: B1 chain with L2Q, I10K
Consider B12, for which the equilibrium dissociation constant (Kd) is 0.88 nM, the dissociation rate constant (koff) came out at 0.00714 s⁻¹ and the association rate constant (kon) worked out at 8.12e+06 M⁻¹ s⁻¹.

B13: Hu-vWF[764-1270]-8His S764P-S766G (other)
chain: B1 chain with S3G, I10K
As to B13, the equilibrium dissociation constant (Kd) is 0.0217 nM, the off-rate (koff) is 0.000388 s⁻¹ and the association rate constant (kon) is 1.79e+07 M⁻¹ s⁻¹.

B14: Hu-vWF[764-1270]-8His S764P-K773M (other)
chain: B1 chain with I10M
B14: the Kd was 0.0108 nM, the off-rate (koff) came to 0.00017 s⁻¹ and the kon was determined as 1.58e+07 M⁻¹ s⁻¹.

B15: Hu-vWF[764-1270]-8His S764P-S766A (other)
chain: B1 chain with S3A, I10K
With B15, the Kd worked out at 0.0123 nM, the off-rate constant (koff) is 0.000166 s⁻¹ and the kon came to 1.35e+07 M⁻¹ s⁻¹.

B16: Hu-vWF[764-1270]-8His S764P-L765P (other)
chain: B1 chain with L2P, I10K
B16: the dissociation constant Kd was found to be 0.0238 nM, the koff is 0.000242 s⁻¹ and the kon was determined as 1.02e+07 M⁻¹ s⁻¹.

B17: Hu-vWF[764-1270]-8His S764P-K773V (other)
chain: B1 chain with I10V
As to B17, the Kd stood at 0.0101 nM, the koff amounted to 0.000157 s⁻¹ and the on-rate (kon) was determined as 1.55e+07 M⁻¹ s⁻¹.

B18: Hu-vWF[764-1270]-8His S764P-K773S (other)
chain: B1 chain with I10S
Turning to B18, the Kd turned out to be 0.0142 nM, the off-rate constant (koff) stood at 0.000306 s⁻¹ and the kon was 2.16e+07 M⁻¹ s⁻¹.

B19: Hu-vWF[764-1270]-8His S764P-K773R (other)
chain: B1 chain with I10R
With B19, the dissociation constant (Kd) was determined as 0.0116 nM, the dissociation rate constant (koff) turned out to be 7.42e-05 s⁻¹ and the kon came out at 6.39e+06 M⁻¹ s⁻¹.

B20: Hu-vWF[764-1270]-8His S764P-L765T (other)
chain: B1 chain with L2T, I10K
As to B20, the Kd amounted to 0.634 nM, the off-rate constant (koff) was 0.00882 s⁻¹ and the kon amounted to 1.39e+07 M⁻¹ s⁻¹.

B21: Hu-vWF[764-1270]-8His S764P-S766F (other)
chain: B1 chain with S3F, I10K
Regarding B21, the equilibrium dissociation constant (Kd) is 0.00741 nM, the koff is 0.0001 s⁻¹ and the kon stood at 1.35e+07 M⁻¹ s⁻¹.

B22: Hu-vWF[764-1270]-8His S764P-K773T (other)
chain: B1 chain with I10T
In the case of B22, the Kd came out at 0.016 nM, the koff stood at 7.5e-05 s⁻¹ and the kon stood at 4.68e+06 M⁻¹ s⁻¹.

B23: Hu-vWF[764-1270]-8His S764P-K773N (other)
chain: B1 chain with I10N
For the molecule B23, the dissociation constant (Kd) was 0.0631 nM, the koff was found to be 0.000347 s⁻¹ and the kon came out at 5.5e+06 M⁻¹ s⁻¹.

B24: Hu-vWF[764-1270]-8His S764P-L765Y (other)
chain: B1 chain with L2Y, I10K
B24: the Kd was 0.355 nM, the koff is 0.0022 s⁻¹ and the association rate constant (kon) turned out to be 6.19e+06 M⁻¹ s⁻¹.

B25: Hu-vWF[764-1270]-8His S764P-K773W (other)
chain: B1 chain with I10W
Take B25: the dissociation constant Kd is 0.257 nM, the dissociation rate constant (koff) was 0.00321 s⁻¹ and the on-rate (kon) was 1.25e+07 M⁻¹ s⁻¹.

B26: Hu-vWF[764-1270]-8His S764P-K773L (other)
chain: B1 chain with I10L
On to B26, for which the Kd amounted to 1.24 nM, the dissociation rate constant (koff) turned out to be 0.000572 s⁻¹ and the kon stood at 460000 M⁻¹ s⁻¹.

B27: Hu-vWF[764-1270]-8His S764P-L765F (other)
chain: B1 chain with L2F, I10K
As for B27, the dissociation constant Kd came out at 0.0373 nM, the dissociation rate constant (koff) was 0.000632 s⁻¹ and the kon stood at 1.69e+07 M⁻¹ s⁻¹.

B28: Hu-vWF[764-1270]-8His S764P-K773Y (other)
chain: B1 chain with I10Y
For the molecule B28, the Kd amounted to 0.0835 nM, the off-rate constant (koff) is 0.00136 s⁻¹ and the association rate constant (kon) came out at 1.63e+07 M⁻¹ s⁻¹.

The Kd is a measure of binding affinity in units of concentration. A word on the koff: it is the first-order rate constant of dissociation. One may read the kon as the second-order rate constant of association.
